Experimental data from US7763426B2, “Probes and methods for detection of Escheridia coli and antibiotic resistance” (priority 2004, dated 2010).
{Fluorescein} = fluorescein label (binding site for anti-fluorescein Fab-HRP); {Biotin} = biotin (capture probe anchor)

Tests used:
Assay type in all cases: binding
bacterial 16S rRNA [1] = assay: Species specificity of short probe pairs, 16 sensor array at ambient temperature (Example 5); settings: for Species detected: ambient temperature hybridization; for Species not detected: * cross-reactivity at a level significantly less than with the target species
[2] = test system: 16S rRNA in lysates of uropathogens; assay: Species specificity of uropathogen probe pairs with the electrochemical sensor array (Example 1); settings: probe pairs of Table 1
bacterial 16S rRNA [3] = assay: Clinical validity study: UTI Chip on blinded clinical urine specimens
Protocol: Amperometric detection of bacterial 16S rRNA. An overview of the electrochemical sensor detection strategy is presented in panel C of FIG. 1. One ml of bacteria in Luria broth, inoculated clean urine, or clinical urine samples was centrifuged at 10,000×g for 5 min. The supernatant was discarded and the bacteria were lysed by resuspension of the pellet in 10 μl of 1 M NaOH and incubation at room temperature for 5 min. In some experiments, addition of 1M NaOH was preceded by resuspension of the bacterial pellet in 10 μl of 0.1% Triton X-100, 2 mM EDTA, and 1 mg/ml lysozyme (Sigma) in 20 mM Tris-HCl, pH 8.0, and incubation at room temperature for 5 min. 50 μl of the detector probe (0.25 μM) in 2.5% bovine serum albumin (Sigma, St. Louis, Mo.) 1 M phosphate buffer, pH 7.4, were added to the bacterial lysate and incubated for 10 min at 65° C. to allow target-probe hybridization. 4 μl of the bacterial lysate/detector probe mixture was deposited on each of the working electrodes in the sensor array and incubated for 15 min at 65° C. in a humidified chamber. After washing and drying, 4 μl of 0.5 U/ml anti-fluorescein horseradish peroxidase (HRP) Fab fragments (Roche, diluted in 0.5% casein in 10 mM phosphate buffered saline, pH 7.4) were deposited on each of the working electrodes for 15 min. After washing and drying, a prefabricated plastic well manifold (GeneFluidics, Monterey Park, Calif.) was bonded to the sensor array. The sensor array was put into the chip reader (FIG. 18) and 50 μl of 3,3′,5,5′-tetramethylbenzidine (TMB), H2O2 solution (K-Blue Low Activity TMB Substrate, Neogen, Lexington, Ky.) was placed on each of the sensors in the array so as to cover all three electrodes of each sensor. Electrochemical measurements are immediately and simultaneously taken for all 16 sensors. For each array, negative control (NC) sensors were tested including the UNI capture probe, detector probe, and 2.5% bovine serum albumin (Sigma, St, Louis, Mo.) in 1 M phosphate buffer, pH 7.4, instead of bacterial lysate. The entire assay protocol was completed within 45 min from the time when bacterial lysis was commenced. Amperometric current vs. time was measured using a multichannel potentiostat (GeneFluidics). The voltage was fixed at −200 mV (vs. reference), and the electroreduction current was measured at 60 s after the HRP redox reaction reached steady state.
Clinical validity study design. Clinical urine specimens were received from routine urine cultures collected from inpatients and outpatients and submitted to the UCLA Clinical Microbiology Laboratory. Routine plating on tripticase soy agar with 5% sheep blood was performed on each specimen for phenotypic identification and colony counting while an aliquot of each specimen was held at 4° C. overnight. On the day after plating, specimens were selected for inclusion in the study on the basis of a rapid indole test for the purpose of including uropathogens other than Escherichia coli in approximately one-half of the specimens. The other half of the specimens were divided between E. coli-containing specimens and specimens determined to have ““no significant growth” or no growth” (see definitions below). Because most UTIs involve a single uropathogen, specimens determined by the clinical microbiology laboratory to have more than one organism present were excluded. Blinded specimens selected for inclusion in the study were stripped of patient identifiers and any microbiological data before delivery to the research laboratory for testing with the electrochemical sensor array.
Experiments were performed on all specimens using the 16-sensor array ‘UTI Chip’, in which the UNI, EB, EC, PM, KE, PA, and EF capture probes (defined in Tables 1 and 2) were tested in duplicate. The two remaining sensors served as negative controls (including capture and detector probes without bacterial lysate). […]

[4] = specimens with Enterobacter aerogenes
[5] = specimens with Enterobacter cloacae
[6] = specimens with Klebsiella pneumoniae
[7] = specimens with Pseudomonas aeruginosa
[8] = specimens with Serratia marcescens
[9] = No Significant Growth specimens
[10] = specimens with Citrobacter freundii
[11] = specimens with Citrobacter koseri
[12] = specimens with Enterobacteriaceae
[13] = specimens with Enterococcus species
[14] = specimens with Escherichia coli
[15] = specimens with Gram-negative bacteria
[16] = specimens with Proteus mirabilis

EB1275C (23 mer)/EB1252C (23 mer): Enterobacteriaceae probe pair, SEQ ID NO: 54 and 55 (DNA 1 ACTTTATGAGGTCCGCTTGCTCT; DNA 2 CGCGAGGTCGCCTTCCTTTGTAT; DNA 1: DNA, 5' {Biotin}, backbone and methylation of C not given here; DNA 2: DNA, 3' {Fluorescein}, backbone and methylation of C not given here; listed as Enterobacter sp.)
Species detected (bacterial 16S rRNA [1]): Ec, Kp, Pm, Ea | Species not detected (bacterial 16S rRNA [1]; ambient temperature): Pa, Ef

EF187C (20 mer)/EF167D (20 mer): Enterococcus spp. probe pair, SEQ ID NO: 52 and 53 (DNA 1 ACCGCGGGTCCATCCATCAG; DNA 2 CGACACCCGAAAGCGCCTTT; DNA 1: 5' {Biotin}, sugars by position and backbone not given here; DNA 2: 3' {Fluorescein}, sugars by position and backbone not given here; listed as Enterococcus sp.)
Species detected (bacterial 16S rRNA [1]): Ef | Species not detected (bacterial 16S rRNA [1]; ambient temperature): Ea, Ec, Kp, Pa, Pm

PM197C (21 mer)/PM176D (21 mer): Proteus mirabilis probe pair, SEQ ID NO: 46 and 47 (DNA 1 CATCCGATAGTGCAAGGTCCG; DNA 2 AAGAGCCCCTGCTTTGGTCCG; DNA 1: 5' {Biotin}, sugars by position and backbone not given here; DNA 2: 3' {Fluorescein}, sugars by position and backbone not given here; listed as Proteus mirabilis)
Species detected (bacterial 16S rRNA [1]): Pm | Species not detected (bacterial 16S rRNA [1]; ambient temperature): Ea, Ec, Ef, Kp, Pa

PA122C (15 mer)/PA107D (15 mer): Pseudomonas aeruginosa probe pair, SEQ ID NO: 50 and 51 (DNA 1 CCCACTTTCTCCCTC; DNA 2 AGGACGTATGCGGTA; DNA 1: 5' {Biotin}, sugars by position and backbone not given here; DNA 2: 3' {Fluorescein}, sugars by position and backbone not given here; listed as Pseudomonas aeruginosa)
cross-reactivity with P. mirabilis 16S (bacterial 16S rRNA [1]; ambient temperature): Weak cross-reactivity | Species detected (bacterial 16S rRNA [1]): Pa | Species not detected (bacterial 16S rRNA [1]; ambient temperature): Ea, Ec, Ef, Kp, Pm*

KP436C (11 mer)/KP425D (11 mer): Klebsiella pneumoniae probe pair, SEQ ID NO: 48 and 49 (DNA 1 CTYAHCGCCTT; DNA 2 CCTCCCCGCTG; DNA 1: 5' {Biotin}, sugars by position, backbone and the base at N not given here; DNA 2: 3' {Fluorescein}, sugars by position and backbone not given here; listed as Klebsiella pneumoniae)
Species detected (bacterial 16S rRNA [1]): Kp | Species not detected (bacterial 16S rRNA [1]; ambient temperature): Ea, Ec, Ef, Pa, Pm

B1: KE: Klebsiella & Enterobacter spp. probe pair: capture SEQ ID NO: 5, detector SEQ ID NO: 6 (nucleic acid, listed as Enterobacter sp.)
DNA 1: GTCAATCGMCRAGGTTATTAACCTYAHCGCCTTCC
DNA 2: CTGAAAGTGCTTTACAACCCGAAGGCCTTCTTCAT
modifications: DNA 1: DNA, 5' {Biotin}, backbone, methylation of C and the base at N not given here; DNA 2: DNA, 5' {Fluorescein}, backbone and methylation of C not given here; Capture probe contains degenerate positions (M, R, Y, H)
Species detected [2]: Ea, El, Ko, Kp | Species not detected [2]: Cf, Ec, Pa, Pm | Mean (range) (bacterial 16S rRNA [3]; [4]): 0.86 (0.37-1.26) log10 units over background | Positive/Total = Percent (bacterial 16S rRNA [3]; [4]): KE 5/5 = 100% | Mean (range) (bacterial 16S rRNA [3]; [5]): 0.34 log10 units over background | Positive/Total = Percent (bacterial 16S rRNA [3]; [5]): KE 1/1 = 100% | Mean (range) (bacterial 16S rRNA [3]; [6]): 1.16 (0.76-1.50) log10 units over background | Positive/Total = Percent (bacterial 16S rRNA [3]; [6]): KE 7/8 = 88%

B2: PA: Pseudomonas aeruginosa probe pair: capture SEQ ID NO: 7, detector SEQ ID NO: 8 (nucleic acid, listed as Pseudomonas aeruginosa)
DNA 1: CCCACTTTCTCCCTCAGGACGTATGCGGTATTAGC
DNA 2: TTCCGGACGTTATCCCCCACTACCAGGCAGATTCC
modifications: DNA 1: DNA, 5' {Biotin}, backbone and methylation of C not given here; DNA 2: DNA, 5' {Fluorescein}, backbone and methylation of C not given here
Species detected [2]: Pa | Species not detected [2]: Ec, Ef, El, Eo, Kp, Pm | Mean (range) (bacterial 16S rRNA [3]; [7]): 0.55 log10 units over background | Positive/Total = Percent (bacterial 16S rRNA [3]; [7]): Pa 1/1 = 100% | Mean (range) (bacterial 16S rRNA [3]; [8]): Pa 0.36 log10 units over background | Positive/Total = Percent (bacterial 16S rRNA [3]; [8]): False Positive

B3: EB: Enterobacteriaceae probe pair: capture SEQ ID NO: 11, detector SEQ ID NO: 12 (nucleic acid, listed as Enterobacter sp.)
DNA 1: CGGACTACGACATACTTTATGAGGTCCGCTTGCTC
DNA 2: GAGGTCGCTTCTCTTTGTATATGCCATTGTAGCAC
modifications: DNA 1: DNA, 5' {Biotin}, backbone and methylation of C not given here; DNA 2: DNA, 5' {Fluorescein}, backbone and methylation of C not given here
Species detected [2]: Cf, Ea, Ec, El, Ko, Kp, Mm, Pm, | Species not detected [2]: Ef, Eo, Pa, Sa, Ss | sensitivity for detection of Gram-negative bacteria in clinical urine specimens (bacterial 16S rRNA [3]): 98% | Positive/Total = Percent (bacterial 16S rRNA [3]; All specimens with bacteria): 46/47 = 98%^2 | Positive/Total = Percent (bacterial 16S rRNA [3]; No Growth specimens): 0/12 = 0% | Positive/Total = Percent (bacterial 16S rRNA [3]; [9]): 0/8 = 0% | Mean (range) (bacterial 16S rRNA [3]; [10]): 1.32 (1.25-1.38) log10 units over background | Positive/Total = Percent (bacterial 16S rRNA [3]; [10]): 2/2 = 100% | Mean (range) (bacterial 16S rRNA [3]; [11]): 1.29 log10 units over background | Positive/Total = Percent (bacterial 16S rRNA [3]; [11]): 1/1 = 100% | Mean (range) (bacterial 16S rRNA [3]; [4]): 1.20 (0.82-1.52) log10 units over background | Positive/Total = Percent (bacterial 16S rRNA [3]; [4]): 5/5 = 100% | Mean (range) (bacterial 16S rRNA [3]; [5]): 1.08 log10 units over background | Positive/Total = Percent (bacterial 16S rRNA [3]; [5]): 1/1 = 100% | Mean (range) (bacterial 16S rRNA [3]; [12]): 1.17 (0.46-1.60) log10 units over background | Positive/Total = Percent (bacterial 16S rRNA [3]; [12]): 46/47 = 98% | Positive/Total = Percent (bacterial 16S rRNA [3]; [13]): 0/8 = 0% | Mean (range) (bacterial 16S rRNA [3]; [14]): 1.17 (0.46-1.60) log10 units over background | Positive/Total = Percent (bacterial 16S rRNA [3]; [14]): 25/26 = 96% | Mean (range) (bacterial 16S rRNA [3]; [15]): 1.17 (0.46-1.60) log10 units over background | Positive/Total = Percent (bacterial 16S rRNA [3]; [15]): 46/47 = 98%^2 | Positive/Total = Percent (bacterial 16S rRNA [3]; specimens with Gram-positive bacteria): 0/10 = 0% | Mean (range) (bacterial 16S rRNA [3]; [6]): 1.13 (0.46-1.13) log10 units over background | Positive/Total = Percent (bacterial 16S rRNA [3]; [6]): 8/8 = 100% | Mean (range) (bacterial 16S rRNA [3]; [16]): 1.14 (0.92-1.45) log10 units over background | Positive/Total = Percent (bacterial 16S rRNA [3]; [16]): 3/3 = 100% | Positive/Total = Percent (bacterial 16S rRNA [3]; [7]): 0/1 = 0% | Mean (range) (bacterial 16S rRNA [3]; [8]): 1.36 log10 units over background | Positive/Total = Percent (bacterial 16S rRNA [3]; [8]): 1/1 = 100% | Positive/Total = Percent (bacterial 16S rRNA [3]; specimens with Staph. saprophyticus): 0/2 = 0%

B4: EF: Enterococcus spp probe pair: capture SEQ ID NO: 9, detector SEQ ID NO: 10 (nucleic acid, listed as Enterococcus sp.)
DNA 1: TTGGTGAGCCGTTACCTCACCAACTAGCTAATGCA
DNA 2: GTCCATCCATCAGCGACACCCGAAAGCGCCTTTCA
modifications: DNA 1: 5' {Biotin}, sugars by position and backbone not given here; DNA 2: 5' {Fluorescein}, sugars by position and backbone not given here
Species detected [2]: Ef, Eo | Species not detected [2]: Ec, Kp, Pa, Pm, Sa | Mean (range) (bacterial 16S rRNA [3]; [9]): 0.31 log10 units over background | Positive/Total = Percent (bacterial 16S rRNA [3]; [9]): Ef 1/8 = 13% | Mean (range) (bacterial 16S rRNA [3]; [13]): 0.99 (0.63-1.36) log10 units over background | Positive/Total = Percent (bacterial 16S rRNA [3]; [13]): Ef 2/8 = 25%
